Reference: patent US20100260765A1 (AstraZeneca / MedImmune, published 2010)

B1: 30E3 (antibody, V domains shown)
VH: EVQLLESGGGLVQPGGSLRLSCAASGFTFSNYALSWVRQAPGKGLEWVSAISGSGRNTYYADSVKGRFTLSRDNSKNTLFLQMNSLRAEDTAVYYCAKASGDNWGQGTLVTVSS
VL: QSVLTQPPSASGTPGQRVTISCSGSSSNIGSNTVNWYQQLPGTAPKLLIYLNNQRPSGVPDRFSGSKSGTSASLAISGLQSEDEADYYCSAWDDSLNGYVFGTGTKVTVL
B2: 33B1 (antibody, V domains shown)
VH: EVQLVESGGGLVKPGGSLRLSCAASGFTFSSYTMNWVRQAPGKGLEWVSFIDSRSSYIYYADSVKGRFTISRDNAKNSLYLQMNSLRAEDTAVYYCSKDDWFEELWGQGTLVTVSS
VL: DIQMTQSPSSLSASVGDRVTITCRASQGIRNDLGWYQQKPGKAPKRLIYATSSLQSGVPSRFSGSGSGTEFTLTISSLQPEDFATYYCLHHNSFPWTFGQGTKVEIK
B3: 33C3 (antibody, V domains shown)
VH: QVQLVESGGGLVKPGESLRLSCAASGFTFSDYYMSWIRQAPGKGLEWVSYISHGGSTIYYADSVKGRFTISRDNAKNSLYLQMNSLRVEDTAVYFCARDDFWSGYYFNWFDPWGQGALVTVSS
VL: DIQMTQYPLSLSASVGDRVTITCRASQSISSFLNWYHQKPGKAPKLLIYGTSSLQSGVPSRFSGSGSGTDFTLTISSLQPEDFATYYCQQTYSIPLTFGGGTNVEIK
B4: 29F7 (antibody, V domains shown)
VH: QVQLVQSGAEVKKPGASVKVSCKASGYTFTSYDINWVRQATGQGLEWMGWMNPNSGKTGYAQKFQGRVTMTRSTSISTAYMELSSLRSEDTAVYYCARGGYSNLGWFDPWGQGTLVTVSS
VL: DIQMTQSPSSVFASVGDRVTITCRASQGISTWLAWYQQKPGKAPKFLIYAASSLQSGVPSRFSGSGSGTDFTLTISSLQPDDFATYYCQQANNFPFTFGPGTKVDIK

Columns and labels:
Test in all cases: cell-based or functional assay
KDR [1] = molecular target: T1, KDR (human, UniProt P35968 20-1356)
T1 sequence (P35968 20-1356): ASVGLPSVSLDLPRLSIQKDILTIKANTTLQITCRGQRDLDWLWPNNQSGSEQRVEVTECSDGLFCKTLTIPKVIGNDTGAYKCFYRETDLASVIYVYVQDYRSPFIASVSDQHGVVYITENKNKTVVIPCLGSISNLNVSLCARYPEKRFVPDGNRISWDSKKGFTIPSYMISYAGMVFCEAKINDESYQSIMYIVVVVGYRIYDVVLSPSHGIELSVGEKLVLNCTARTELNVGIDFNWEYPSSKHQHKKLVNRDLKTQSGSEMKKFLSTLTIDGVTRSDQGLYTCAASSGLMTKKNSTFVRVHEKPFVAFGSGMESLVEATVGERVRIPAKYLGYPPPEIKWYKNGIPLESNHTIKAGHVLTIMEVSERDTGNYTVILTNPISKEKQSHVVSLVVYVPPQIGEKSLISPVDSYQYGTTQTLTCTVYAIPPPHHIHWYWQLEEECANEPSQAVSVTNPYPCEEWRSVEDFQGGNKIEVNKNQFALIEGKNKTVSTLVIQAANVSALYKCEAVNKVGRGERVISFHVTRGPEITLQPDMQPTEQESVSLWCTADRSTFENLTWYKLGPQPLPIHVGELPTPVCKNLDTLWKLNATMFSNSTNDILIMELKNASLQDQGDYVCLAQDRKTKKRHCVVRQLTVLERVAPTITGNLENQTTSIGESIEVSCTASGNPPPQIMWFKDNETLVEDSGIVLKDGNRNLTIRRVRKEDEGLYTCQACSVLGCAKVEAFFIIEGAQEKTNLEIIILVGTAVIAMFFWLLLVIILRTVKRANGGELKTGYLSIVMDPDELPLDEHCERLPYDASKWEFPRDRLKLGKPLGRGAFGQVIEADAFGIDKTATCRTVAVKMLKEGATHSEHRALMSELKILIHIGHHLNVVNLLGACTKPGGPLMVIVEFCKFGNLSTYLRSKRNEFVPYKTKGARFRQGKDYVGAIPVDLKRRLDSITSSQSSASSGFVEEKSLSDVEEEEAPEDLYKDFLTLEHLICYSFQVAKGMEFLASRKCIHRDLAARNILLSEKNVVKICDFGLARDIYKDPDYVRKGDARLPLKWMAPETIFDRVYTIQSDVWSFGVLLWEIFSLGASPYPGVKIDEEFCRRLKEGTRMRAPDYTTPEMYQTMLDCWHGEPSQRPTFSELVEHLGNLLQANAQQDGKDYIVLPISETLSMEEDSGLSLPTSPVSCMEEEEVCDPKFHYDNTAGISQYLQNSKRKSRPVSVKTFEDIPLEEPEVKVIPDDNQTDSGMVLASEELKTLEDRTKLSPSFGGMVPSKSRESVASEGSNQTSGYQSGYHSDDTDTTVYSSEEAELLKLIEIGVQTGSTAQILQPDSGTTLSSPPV

KDR [2] = molecular target: T1, KDR; remark: listed apart in the source
KDR [3] = molecular target: T1, KDR; remark: listed apart in the source
KDR [4] = molecular target: T1, KDR; remark: listed apart in the source
KDR [5] = molecular target: T1, KDR; remark: listed apart in the source

| Binder | Activity at 133 nM (% Inhibition), 1-hour Pre-incubation at 4° C., Average (KDR [1]) | Activity at 133 nM (% Inhibition), 1-hour Pre-incubation at 4° C., N = 1 (KDR [1]) | Activity at 133 nM (% Inhibition), 1-hour Pre-incubation at 4° C., N = 2 (KDR [1]) | Activity at 133 nM Antibody Concentration (% Survival Inhibition), Average (KDR [2]) | Activity at 133 nM Antibody Concentration (% Survival Inhibition), N = 1 (KDR [2]) | Activity at 133 nM Antibody Concentration (% Survival Inhibition), N = 2 (KDR [2]) | % of Max VEGF KDR pTyr Activity (at 133 nM antibody concentration), Average (KDR [3]) | % of Max VEGF KDR pTyr Activity (at 133 nM antibody concentration), N = 1 (KDR [3]) | % of Max VEGF KDR pTyr Activity (at 133 nM antibody concentration), N = 2 (KDR [3]) | % Inhibition of VEGF165-mediated 6-keto Prostaglandin F1α release at 133 nM Antibody Concentration, Average (KDR [4]) | % Inhibition of VEGF165-mediated 6-keto Prostaglandin F1α release at 133 nM Antibody Concentration, N = 1 (KDR [4]) | % Inhibition of VEGF165-mediated 6-keto Prostaglandin F1α release at 133 nM Antibody Concentration, N = 2 (KDR [4]) | Activity at 133 nM (% Inhibition), 24-hour Pre-incubation at 37° C., Average (KDR [5]) | Activity at 133 nM (% Inhibition), 24-hour Pre-incubation at 37° C., N = 1 (KDR [5]) | Activity at 133 nM (% Inhibition), 24-hour Pre-incubation at 37° C., N = 2 (KDR [5]) |
| --- | --- | --- | --- | --- | --- | --- | --- | --- | --- | --- | --- | --- | --- | --- | --- |
| B1 | 33% | 29% | 37% | -16% | -5% | -27% | 10% | 11% | 8% | 24% | 15% | 33% | 83% | 69% | 97% |
| B2 | 87% | 86% | 88% | 73% | 80% | 66% | 7% | 7% | 7% | 95% | 76% | 114% | 85% | 88% | 82% |
| B3 | 80% | 78% | 83% | 103% | 104% | 102% | 8% | 6% | 10% | 142% | 106% | 178% | 67% | 45% | 88% |
| B4 | 44% | 36% | 52% | -12% | 3% | -27% | 16% | 19% | 12% | 19% | 1% | 38% | 26% | 23% | 30% |
